From US20240269283A1 (NINGBO T MAXIMUM BIOPHARMACEUTICALS, published 2024)
Numbering of substitutions follows the chain as printed.

B1: B7H3 single-domain antibody 1A5 (VHH)
VHH: QAQLVESGGGLVQTGGSLRLSCAASGRIFSNYSVGWFRQAPGKEREFVAAIIWSTGTTNLADPMKGRFTISRDNAKNTVVLQMNSLKPEDTAIYYCAASFKYSGIYGREADFGSWGQGTQVTVSS
notes: Called a single-domain antibody / recombinant antibody; also called 1A5 antibody; anti-B7H3 VHH antibody
B2: B7H3 single-domain antibody 1G7 (VHH)
VHH: AVQLVESGGGLVQTGGSLRLSCADSGRIFSNYAMGWFRQAPGKEREFVAAIIGSTGTVNYADSMKGRFTISRDNAKNTVVLQMNSLKPEDTAIYYCAASFRYSGIYGREADFVSWGQGTQVTVSS
notes: Called a single-domain antibody / recombinant antibody; also called 1G7 antibody; anti-B7H3 VHH antibody
B3: hu1A5 (VHH)
VHH: QVQLVESGGGLVQPGGSLRLSCAASGRIFSNYSVGWFRQAPGKEREFVAAIIWSTGTTYYADSVKGRFTISRDNSKNTLYLQMNSLRAEDTAVYYCAASFKYSGIYGREADFGSWGQGTLVTVSS
notes: a member of the group m3 (humanized antibodies of 1A5 and 1G7); also called humanized antibody of 1A5
B4: hu1G7 (VHH)
VHH: B3 VHH with Q1A, S33A, V34M, W53G, T58V, K101R, G113V
notes: a member of the group m3 (humanized antibodies of 1A5 and 1G7); also called humanized antibody of 1G7

Key:
[1] = biological target: T1, B7H3-Fc recombinant protein (human, UniProt Q5ZPR3 29-461); assay: SPR, Biacore 8K, CM5 chip
T1 construct: also called human B7H3 protein; not shown: Fc part of the B7H3-Fc recombinant protein
T1 sequence (looked up): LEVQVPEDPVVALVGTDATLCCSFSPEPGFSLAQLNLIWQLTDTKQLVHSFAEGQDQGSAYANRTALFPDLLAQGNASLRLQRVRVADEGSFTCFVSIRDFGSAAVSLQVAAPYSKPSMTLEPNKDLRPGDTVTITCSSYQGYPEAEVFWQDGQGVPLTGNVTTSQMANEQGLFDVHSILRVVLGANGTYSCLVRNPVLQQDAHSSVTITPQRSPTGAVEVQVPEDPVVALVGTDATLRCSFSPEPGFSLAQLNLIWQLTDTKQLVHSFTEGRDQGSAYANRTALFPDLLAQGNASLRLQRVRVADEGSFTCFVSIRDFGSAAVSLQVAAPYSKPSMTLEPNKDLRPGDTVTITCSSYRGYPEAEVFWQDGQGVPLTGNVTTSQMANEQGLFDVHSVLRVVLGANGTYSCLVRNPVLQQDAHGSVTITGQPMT
Description: The mouse anti-human IgG (Fc) antibody was diluted with the immobilization reagent (sodium acetate, pH 5.0): 950 μL of the immobilization reagent was added to 50 μL of the mouse anti-human IgG (Fc) antibody. The dilution was used for immobilization in eight channels. First, the surface of the CM5 chip was activated for 360 s with EDC and NHS at a flow rate of 10 μL/min. Then, the mouse anti-human IgG (Fc) antibody was injected into the channels (channels 1-8, Fc1,2) at a flow rate of 10 μL/min for about 360 s, with the level of immobilization at about 7000 to 14,000 RU. Finally, the chip was blocked with ethanolamine at 10 μL/min for 420 s.
The human B7H3 protein was diluted 2-fold with the running reagent. The diluted human B7H3 protein was injected into the experimental channels and the reference channels in sequence at a flow rate of 30 μL/min, and corresponding periods of association and dissociation were allowed. The association and dissociation steps were all performed in the running reagent. After each concentration analysis, the chip needed to be regenerated with magnesium chloride at a flow rate of 20 μL/min for 30 s to wash away the ligand and undissociated analyte. For the next concentration analysis, the experimental channels needed to recapture the same amount of ligand.
A KD value was calculated for each sample using Biacore 8K analysis software Biacore Insight Evaluation Software. The reference channels (Fc1) were used for background subtraction.

[2] = biological target: T2, B7H3 on U251 cells (UniProt Q5ZPR3 29-534, limits assumed); assay: flow cytometry on U251 cells (expressing B7H3), MFI against antibody concentration
T2 construct: whole, on cells; also called U251 cells (expressing B7H3)
T2 sequence (looked up): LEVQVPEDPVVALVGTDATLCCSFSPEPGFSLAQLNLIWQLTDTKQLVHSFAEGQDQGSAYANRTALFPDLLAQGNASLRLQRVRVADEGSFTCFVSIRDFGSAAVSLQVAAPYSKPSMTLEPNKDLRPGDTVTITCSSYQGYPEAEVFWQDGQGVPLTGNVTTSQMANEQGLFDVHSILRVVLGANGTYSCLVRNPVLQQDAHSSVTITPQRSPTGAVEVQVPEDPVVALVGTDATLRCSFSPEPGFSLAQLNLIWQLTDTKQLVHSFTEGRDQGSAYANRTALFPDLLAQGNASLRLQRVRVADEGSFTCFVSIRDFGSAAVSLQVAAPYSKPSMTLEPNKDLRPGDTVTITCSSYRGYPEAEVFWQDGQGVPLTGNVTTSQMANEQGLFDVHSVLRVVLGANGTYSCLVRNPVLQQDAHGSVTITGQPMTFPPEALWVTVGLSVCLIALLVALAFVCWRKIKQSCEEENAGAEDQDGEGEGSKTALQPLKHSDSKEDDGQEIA
Description: Recombinant antibodies with different concentrations were incubated with U251 cells (expressing B7H3), and the binding of the antibodies to the cell surface was assayed by the mean fluorescence intensity (MFI) of the cells. From the results shown in FIG. 2, the 1A5 and 1G7 antibodies and the humanized antibodies thereof can effectively bind to the surface of the U251 cells.

Binder	Kd [1] [nM]	koff [1] [s⁻¹]	kon [1] [M⁻¹ s⁻¹]	binding result [2]	EC50 (read off the curve) [2] [mg/L]
B1	7.39	0.0045	609000	binds	
B2	5.38	0.00618	1.15e+06		~4
B3				binds	
B4				binds	
